Assay results published in FireProtDB (doi:10.1002/pro.5560030904).
Values joined by “and” are separate entries in the source; they are usually repeats but may differ in a detail not shown here. Equal entries are not always repeated.

Details: Oryctolagus cuniculus; pH 7.4; Thermal; DSC; sodium phosphate 10 mM; transition: 4; reversible: yes; whole UniProt chain shown

B1: Fructose-bisphosphate aldolase A wild type, P00883 (protein)
chain: MPHSHPALTPEQKKELSDIAHRIVAPGKGILAADESTGSIAKRLQSIGTENTEENRRFYRQLLLTADDRVNPCIGGVILFHETLYQKADDGRPFPQVIKSKGGVVGIKVDKGVVPLAGTNGETTTQGLDGLSERCAQYKKDGADFAKWRCVLKIGEHTPSALAIMENANVLARYASICQQNGIVPIVEPEILPDGDHDLKRCQYVTEKVLAAVYKALSDHHIYLEGTLLKPNMVTPGHACTQKYSHEEIAMATVTALRRTVPPAVTGVTFLSGGQSEEEASINLNAINKCPLLKPWALTFSYGRALQASALKAWGGKKENLKAAQEEYVKRALANSLACQGKYTPSGQAGAAASESLFISNHAY
unfolding enthalpy (calorimetric): 61 kcal/mol and 34 kcal/mol
